Tested on: MS2 coat protein
Experiment: apparent KD of MS2 coat protein; designed switch direction (-1 OFF switch, 1 ON switch): -1; higher = weaker reporter binding
In short: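 An oligonucleotide input, 200 uM small-molecule ligand, or no input was present during titration of SNAP-549-labelled MS2 coat protein, which was doubled from 0.7 or 1.5 nM to 3 µM. Designed RNA switches had been transcribed on Illumina chips by stalled E. coli RNA polymerase. Apparent KD per design is the median over clusters of curves fitted to normalised cluster fluorescence.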

[1] = input ligand: microRNA oligo, concentration not stated
[2] = Eterna round: R95, input ligand: FMN 200 uM
[3] = Eterna round: R95, input ligand: microRNA oligo, concentration not stated
[4] = Eterna round: R95, input ligand: none

Sequence | apparent KD of MS2 coat protein (input ligand: FMN 200 uM) [nM] | apparent KD of MS2 coat protein [1] [nM] | apparent KD of MS2 coat protein (input ligand: none) [nM] | apparent KD of MS2 coat protein [2] [nM] | apparent KD of MS2 coat protein [3] [nM] | apparent KD of MS2 coat protein [4] [nM]
GGAUAAAACUGAGGAUAUGCGUAUAGAUAGAGAGCAGAAGGCAGACAUGAGGAUCACCCAUGUGAGUUCUCGAUAAGAAACACG [Prohibition 58 - Jieux - Exclusion NG 1] (Eterna round: R96, puzzle: Exclusion NG 1) | 118 | 36.1 | 35.2 | – | – | –
ACAUGACAGCUAGGAUAUAAAUGACAUGAGGAUCACCCAUGUUGUCCCAUGUUGAGGAUCACCCAUUAGAAGGAGCCACCCAUG [Exclusion NG2 S1] (Eterna round: R96, puzzle: Exclusion NG 2) | 92.8 | 49.2 | 85.3 | – | – | –
GGUUGACAUGAGGAUCACCCAUGUGAGGAUAUGCGAGAGAAAAAAGUGAGGAAGGUUUGCAGAAGGCGCUGUCG [salish99-ex1_r3_008] (puzzle: Exclusion 1) | – | – | – | 50.2 | 115 | 81.2
AGUACUAACACGAUAGUGUUAGUACUAUAAGCUUGUGUUACAUGAGGAUCACCCAUGUCCUCAUAAGCUCGUCUUGA [Mat - Sensor v3 - Turn-off var 2 - D92] (puzzle: Sensor v3, turn-off variant 2) | – | – | – | 33.3 | 467 | 40.6
UUUCGGCGGACCGUGGCUUUUUGCUCGUCUUAUGCUACGACAUGAGGAUCACCCAUGUGGUGGUGGUCCGUUGUUGU [Grok-var2-11 mod JAL] (puzzle: Sensor v3, turn-off variant 2) | – | – | – | 59.7 | 10.4 | 39.7
ACAUGAGGAUCACCCAUGUGACCACAAUGGCUGAUGUAACAACAGGAUAUGCGUGAAUAUCUAACGCAGAAGGGUUAUGACUGG [Deportation 60 - Jieux - Exclusion NG 3] (Eterna round: R96, puzzle: Exclusion NG 3) | 73.5 | 71.6 | 65.4 | – | – | –
AAGCAUUGCCAAAGGUAGUGCUUAACAUGAGGAUCACCCAUGUAGGAUAUGGUAGGCAAAGCUUACCAGAAGGACAUGAUAAUU [Mat - Exclusion NG 3 - Mod of JL - D14] (Eterna round: R96, puzzle: Exclusion NG 3) | 430 | 61.5 | 70.8 | – | – | –
AAUCCACAUGAGGAUCACCCAUGUGAGGAUAUGAUACUAUGUACUUCGGUACAUAGUAUCAGAAGGCAUAUGAA [Ex1-3: 49] (puzzle: Exclusion 1) | – | – | – | – | 26.9 | –
CUGAACCCGGUAGGAUAUAUUGUGGGCAAACAUGGAACAACAUGAGGAUCACCCAUGUAAUUUAGGUAGAAGGGCCAAAAGAUU [Excl-NG2-LRO07] (Eterna round: R96, puzzle: Exclusion NG 2) | 77.9 | 50.4 | 74.2 | – | – | –
CAUACUAAAGUCAGGAUAUGCAGUCGAAUACGGGUGUAGAAGGGACAUGAGGAUCACCCAUGUAGAUAGUAAAG [EX-4 Malc #20] (puzzle: Brourd's mod of Exclusion 4) | – | – | – | 37.9 | 48.9 | 42.2
GCAGCAUAGAUAACAGUCUGAUACAUGAGGAUCACCCAUGUGCAGGAUAUGGUCUGGAUUACAGGCCAGAAGGGUACAAGCUGC [Eli exng3 - 015] (Eterna round: R96, puzzle: Exclusion NG 3) | 10.4 | 7.84 | 13.4 | – | – | –
CGGUAGUGCUCAGGAUAUACAUGAGGAUCACCCAUGUAACUAGAAUCGGUCGUCCGAUCAGUGGUGUAGAAGGGAGGCUGGCUG [random 1, A 25%] (Eterna round: R96, puzzle: Exclusion NG 2) | 32.1 | 22 | 31.5 | – | – | –
UCUUACUGAGGAUAUACAUAGAUUUACAUGAGGAUCACCCAUGUUCCUCUAAGUAUAUAUGUAGAAGGCAGAAGAU [Mat - Exclusion 5 - JL Mod - D44] (Eterna round: R97, puzzle: Exclusion 5) | 329 | – | 235 | – | – | –
GUCGUGCGGCUUUGCUGUACGAGUACAUGAGGAUCACCCAUGUAGGAUAUGGUACGCUUUGCGUGCCAGAAGGGCGUGCGUUGG [salish99_ExNG3_r04_006] (Eterna round: R96, puzzle: Exclusion NG 3) | 33.3 | 23.9 | 29.9 | – | – | –
UUUUUAGUGCUUUUUAAGUACAUGAGGAUCACCCAUGUACUUGUCUGGUGGUCCGGACAAGCUUUUUGCUCGUCUUG [Trying Again] (puzzle: Sensor v3, turn-off variant 1) | – | – | – | 41.4 | 35.9 | 48.2
GGUCAAGAACAGCUCCGCGCUGCCCUUGACCGCUCAUUUACAUGAGGAUCACCCAUGUUUUUUGCUUGUCUUGUUUC [Bebiesgebe] (puzzle: Sensor v3, turn-off variant 2) | – | – | – | 20 | 127 | 22.6

Sequence | apparent KD of MS2 coat protein (input ligand: FMN 200 uM) [nM] | apparent KD of MS2 coat protein [1] [nM] | apparent KD of MS2 coat protein (input ligand: none) [nM] | apparent KD of MS2 coat protein [2] [nM] | apparent KD of MS2 coat protein [3] [nM] | apparent KD of MS2 coat protein [4] [nM]
ACAUGUUAUUUAGGAUAUUGGACACAUGAGGAUCACCCAUGUACCCGGAGGCUUUACUAUGAGUUCGAGAAGGAGAUGUACAUG [Ex NG2 #70] (Eterna round: R96, puzzle: Exclusion NG 2) | 89.3 | 59.3 | 75.6 | – | – | –
CACCGUUACAGAGGAUAUGGUACAUGAGGAUCACCCAUGUAAUAAAUGAGAAUUUCGGAUGUAUUCCAGAAGGCUGAAAUCGGC [Ostricism 64 - Jieux - Exclusion NG 2] (Eterna round: R96, puzzle: Exclusion NG 2) | 50.2 | 30.2 | 46.8 | – | – | –
CCGCAACAUGAGGAUCACCCAUGUCAGGAUAUCGUACGUUCGUCGAAAGACGAUCGUACGAGAAGGGUGUGCGG [Eli x1 4.36] (Eterna round: R97, puzzle: Exclusion 1) | 79.8 | – | 110 | – | – | –
CACCUGAAGAGAGGAUAUGAUACAUGAGGAUCACCCAUGUAAUAAAUGAGAAUUUCGAAUGUAAUUCAGAAGGCUCAAUAAGGC [Ostricism 94 - Jieux - Exclusion NG 2] (Eterna round: R96, puzzle: Exclusion NG 2) | 107 | 50.8 | 52 | – | – | –
GUCAGCUCGUGAGGAUAUACAUGCGUGCUUCGGCACGAAUUUAAGAUCACAUGAGGAUCACCCAUGUAGAAGGCACGAGCUGAU [ENG2/3-A2] (Eterna round: R96, puzzle: Exclusion NG 2) | 366 | 896 | 797 | – | – | –
AGUCUGCUAGGAUAUACAUGAGGAUCACCCAUGUCUAUCAAUAGACUAUUAACCUGGUGUAGAAGGAGCUUGUA [Onatlacein] (puzzle: Exclusion 3) | – | – | – | – | 11.1 | –
CUGAGCAGACGGAGAUCCAACAUGAGGAUCACCCAUGUCUCAAAAGCUUUUUGCUCGCCUUAUCCUCCUCUGUUCUC [Ererququce] (puzzle: Sensor v3, turn-off variant 1) | – | – | – | 34.8 | 208 | 36.6
AGAGAAUAGUCAGGAUAUCUUAAUAGAAAGAAUAGAGAAGGGACACAUGAGGAUCACCCAUGUGAAGUCUUGAGACUACAUGGU [Prohibition 30 - Jieux - Exclusion NG 1] (Eterna round: R96, puzzle: Exclusion NG 1) | 108 | 27.4 | 35.3 | – | – | –
ACAUGACUGCUAGGAUAUAGAUGACAUGAGGAUCACCCAUGUUGUCCCAUGUUUAUGGAAACGGACUAGAAGGAGUAGUAUAUG [Ex NG2 #14] (Eterna round: R96, puzzle: Exclusion NG 2) | 30.7 | 23.4 | 27.9 | – | – | –
GGACAUAAAGUCAGGAUAUUAAUGCGAACAAGCGAUGAGAAGGGACAUGAGGAUCACCCAUGUGAUUCUCAUCA [Edvebe] (Eterna round: R97, puzzle: Brourd's mod of Exclusion 4) | 17.6 | – | 16.5 | – | – | –
AGCUGUGGCCGAGGAUAUCACAUGAGGAUCACCCAUGUACAUGAUUAGGCCUGGUAACAGGCUCAUGAGAAGGCGGUCUCAGCA [Eli eng2 - 013] (Eterna round: R96, puzzle: Exclusion NG 2) | 16.1 | 16.4 | 22.4 | – | – | –
CUAGAUCUUCGGAUCUAGUACAUGAGGAUCACCCAUGUGACGAGUUACAUGAAAAACAAGCUUUUUGCUCGUCUUAU [Sensor v3 - Turn-off variant 1 - 8] (puzzle: Sensor v3, turn-off variant 1) | – | – | – | 41.6 | 102 | 46.6
UUAAAUCAUGUAGGAUAUGCGUGGCGAAGCUAUGCAGAAGGACAUGAGGAUCACCCAUGUUCUUGCGUCUGCGUACAGAUGCGG [Exclusion NG 1] (Eterna round: R96, puzzle: Exclusion NG 1) | 175 | 20 | 25.9 | – | – | –
CUCGUGCAGCUUUGCUGUACGAGUACAUGAGGAUCACCCAUGUAGGAUAUGGUACGCUUUGCGUGCCAGAAGGACGUGUGUUUG [JL EXNG3 1.40] (Eterna round: R96, puzzle: Exclusion NG 3) | 221 | 27.6 | 39.4 | – | – | –
GGUGUACUAGUCAGGAUAUGAUUAAUACCAAAGAAUCAGAAGGGACAUGAGGAUCACCCAUGUAAAGAAGGAGA [BmEX4 A.23] (Eterna round: R97, puzzle: Brourd's mod of Exclusion 4) | 158 | – | 32.5 | – | – | –
